In publication PMC7608589, “Divergent architecture of the heterotrimeric NatC complex explains N-terminal acetylation of cognate substrates” (Nature Communications, 2020):

T1: NatC WT complex (Naa30ΔC17, full-length Naa35, Naa38ΔC11) (S. cerevisiae, UniProt Q03503 1-159; Q02197 1-733; P23059 1-77)
T1 construct: Naa30, catalytic subunit of NatC, S. cerevisiae, residues 1–159; Naa38, small auxiliary subunit of NatC, S. cerevisiae, residues 1–77; also called heterotrimeric NatC complex; not shown: His6, N-terminal, cleaved; copies: + +
T1 sequence (looked up) 1: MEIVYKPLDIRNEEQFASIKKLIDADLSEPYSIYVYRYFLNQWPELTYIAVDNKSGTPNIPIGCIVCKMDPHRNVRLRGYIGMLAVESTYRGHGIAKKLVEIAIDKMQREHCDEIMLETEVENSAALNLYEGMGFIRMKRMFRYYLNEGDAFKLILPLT
T1 sequence (looked up) 2: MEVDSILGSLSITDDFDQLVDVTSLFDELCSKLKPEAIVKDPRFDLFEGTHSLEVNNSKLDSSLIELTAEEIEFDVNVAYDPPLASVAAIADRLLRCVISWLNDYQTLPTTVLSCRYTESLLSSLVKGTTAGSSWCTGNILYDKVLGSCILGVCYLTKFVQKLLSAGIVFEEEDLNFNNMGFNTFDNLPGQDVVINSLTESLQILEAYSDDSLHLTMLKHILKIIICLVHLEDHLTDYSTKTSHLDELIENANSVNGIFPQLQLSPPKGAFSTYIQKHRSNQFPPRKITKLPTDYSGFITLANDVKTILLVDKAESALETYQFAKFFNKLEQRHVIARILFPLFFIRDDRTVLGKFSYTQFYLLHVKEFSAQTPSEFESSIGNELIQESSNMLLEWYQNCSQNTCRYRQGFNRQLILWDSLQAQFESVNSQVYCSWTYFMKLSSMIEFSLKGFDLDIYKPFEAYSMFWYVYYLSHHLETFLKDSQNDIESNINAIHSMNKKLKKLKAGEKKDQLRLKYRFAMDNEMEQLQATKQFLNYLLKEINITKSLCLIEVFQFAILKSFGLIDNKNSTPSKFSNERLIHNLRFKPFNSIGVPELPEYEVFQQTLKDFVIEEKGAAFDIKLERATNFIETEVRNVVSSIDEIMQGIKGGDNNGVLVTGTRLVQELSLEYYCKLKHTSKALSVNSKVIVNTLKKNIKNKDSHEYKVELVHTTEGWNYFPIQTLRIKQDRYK
T1 sequence (looked up) 3: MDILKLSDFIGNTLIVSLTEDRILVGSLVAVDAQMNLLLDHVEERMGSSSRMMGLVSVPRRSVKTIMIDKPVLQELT

B1: NatC WT (Naa30ΔC17, full-length Naa35, Naa38ΔC11) (Saccharomyces cerevisiae S288C) (protein)
chain: T1 sequence (looked up) 1
notes: heterotrimer co-expressed in E. coli BL21(DE3) from pRSFDuet-1; Naa30 lacks 17 and Naa38 lacks 11 C-terminal residues; His6-tag on Naa35 cut by HRV 3C; with N-alpha-acetyltransferase 35, NatC auxiliary subunit; N-alpha-acetyltransferase 38, NatC auxiliary subunit
B2: Gag peptide (MLRFVGSRRR) (peptide)
peptide: MLRFVGSRRR
notes: the N-terminal five residues of the major capsid protein (Gag) of the S. cerevisiae virus L-A; GS linker and a triple arginine to facilitate peptide solubility; Only the first six residues were modelled in the crystal; source: synthetic peptide (ProteoGenix)

What was measured:
[1] = substrate: CC(=O)SCCNC(=O)CCNC(=O)[C@H](O)C(C)(C)COP(=O)(O)OP(=O)(O)OC[C@H]1O[C@@H](n2cnc3c(N)ncnc32)[C@H](O)[C@@H]1OP(=O)(O)O; assay: Ellman (DTNB) colorimetric acetyltransferase assay, Michaelis-Menten fit; type: biochemical, Saccharomyces cerevisiae; conditions: fixed yArl3 peptide … 1340 µM, 30–500 µM acetyl-CoA, pH 7.5, 25 °C
Excerpt: Ellman (DTNB) colorimetric acetyltransferase assay, Michaelis-Menten fit on NatC WT (Naa30ΔC17, full-length Naa35, Naa38ΔC11)

[2] = molecular target: T1, NatC WT complex (Naa30ΔC17, full-length …); assay: crystal structure; purified NatC with CoA (1:3) and substrate peptide … (1:5) or … (1:3) added to the crystallization setup; 14.5–16.5% PEG 4000, 150 mM ammonium iodide, 100 mM sodium citrate pH 6.1–6.3; conditions: both partners purified

Binder	Km [1]	binding result [2]
B1	30 ± 6 µM	
B2		binds
